What was measured:
[1] = target: T1, Human CCR8 (C-C chemokine receptor type 8) expressed on CHO-S cells (human, UniProt P51685 1-355); test: flow cytometry (PE-A), human CCR8-expressing CHO-S cells against parental CHO-S cells; antibody concentration not given
T1 construct: also called huCCR8; human CCR8-expressing CHO-S cells

[2] = target: T2, Human CCR4 expressed on CHO-S cells (human, UniProt P51679 1-360); test: flow cytometry (PE-A), human CCR4-expressing CHO-S cells against parental CHO-S cells; antibody concentration not given
T2 construct: whole, on cells; also called CCR4-expressing CHO-S cells
T2 sequence (looked up): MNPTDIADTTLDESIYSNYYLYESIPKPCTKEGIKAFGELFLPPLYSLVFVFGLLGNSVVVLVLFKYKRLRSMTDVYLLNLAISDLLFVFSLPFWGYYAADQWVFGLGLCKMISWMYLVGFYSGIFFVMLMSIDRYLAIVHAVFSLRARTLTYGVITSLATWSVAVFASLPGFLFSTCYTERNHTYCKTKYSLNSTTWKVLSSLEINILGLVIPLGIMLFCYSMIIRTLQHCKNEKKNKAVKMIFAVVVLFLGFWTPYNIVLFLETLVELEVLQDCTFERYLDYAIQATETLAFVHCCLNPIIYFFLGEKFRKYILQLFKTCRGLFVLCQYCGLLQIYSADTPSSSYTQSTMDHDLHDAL

[3] = target: T3, CCR8-NT.MBP (CCR8 N-terminus peptide aa 1-35 fused with maltose binding protein); test: ForteBio Octet, antibody captured on AHC biosensors
[4] = target: T1, Human CCR8 (C-C chemokine receptor type …); test: flow cytometry on CHO cells expressing CCR8, EC50 column
Procedure: (§1) CCR8 binding was determined using flow cytometry according to the same methods used in Example 4, Briefly, antibodies were screened for specific binding to human CCR8 by flow cytometry using human CCR8-overexpressing and parental CHO—S cell line. Antibodies specifically binding to human CCR8 were also tested for binding to CCR4 by flow cytometry.

[5] = target: T3, CCR8-NT.MBP (CCR8 N-terminus peptide aa …); test: ForteBio Octet, antibody captured on AHC biosensors, CCR8-NT.MBP as analyte
[6] = target: T2, Human CCR4 expressed on CHO-S cells; test: flow cytometry
[7] = target: T1, Human CCR8 (C-C chemokine receptor type …); test: cell-based or functional assay
[8] = target: T1, Human CCR8 (C-C chemokine receptor type …); test: cell-based or functional assay; remark: listed apart in the source
[9] = target: T1, Human CCR8 (C-C chemokine receptor type …); test: cell-based or functional assay; remark: listed apart in the source
[10] = target: T1, Human CCR8 (C-C chemokine receptor type …); test: KinExA, on-cell, human CCR8-expressing CHO-S cells
Procedure: (§2) Samples were gently rocked for 2.5 hours at 37° C. to achieve equilibrium.
(§3) To determine the rate of association (kₒₙ), the same immobilized biotinylated goat anti-human IgG-PMMA column was used as the capture reagent for kinetic experiments.
(§4) Data analysis was performed using KinExA Pro software at Sapidyne Instruments Inc to generate Kd and kₒₙ, The rate of dissociation (koff) was calculated based on the equation below.

[11] = target: T1, Human CCR8 (C-C chemokine receptor type …); test: flow cytometry, human CCR8-overexpressing against parental CHO-S cells
Procedure: The first category of variant (single substitution mutation in the CDR H3) included variants in which each amino acid residue of the heavy chain CDR 3 (i.e., , CDR H3) was iteratively substituted with an alanine residue.
as §1

[12] = target: T1, Human CCR8 (C-C chemokine receptor type …); test: KinExA, on-cell, human CCR8-expressing CHO-S cells; calculated from Kd and kon
Procedure: as §2, §3, §4

[13] = target: T4, Human CCR8 on human CCR8-overexpression lipoparticles (human, UniProt P51685 1-355); test: sequential format ELISA on human CCR8-overexpression lipoparticles; competitor 1-K16
[14] = target: T4, Human CCR8 on human CCR8-overexpression …; test: sequential format ELISA on human CCR8-overexpression lipoparticles; competitor 1-K17
[15] = target: T4, Human CCR8 on human CCR8-overexpression …; test: sequential format ELISA on human CCR8-overexpression lipoparticles; competitor 6-B09
[16] = target: T4, Human CCR8 on human CCR8-overexpression …; test: sequential format ELISA on human CCR8-overexpression lipoparticles; competitor 7-B16
[17] = target: T4, Human CCR8 on human CCR8-overexpression …; test: sequential format ELISA on human CCR8-overexpression lipoparticles; competitor 19-O07
[18] = target: T1, Human CCR8 (C-C chemokine receptor type …); test: flow cytometry epitope binning, tandem format, human CCR8-overexpressing cells; competitor 1-K16
Procedure: (§5) A subset of antibodies against human CCR8 were epitope binned using flow cytometry method in tandem format. Briefly, one set of antibodies was biotinylated. Human CCR8-overexpressing cells were incubated at 4° C., with the non-biotinylated antibodies at 10 μg/mL for 1 hour, then without washing the biotinylated antibodies were added at 10 μg/mL. After a further 1-hour incubation, cells were washed three times and then stained with streptavidin-phycoerythrin (PE-strep) secondary antibody for 30 minutes. Binding competition was determined by detecting PE by flow cytometry. The response values were normalized as the % of the maximum binding of the individual antibody.

[19] = target: T1, Human CCR8 (C-C chemokine receptor type …); test: flow cytometry epitope binning, tandem format, human CCR8-overexpressing cells; competitor 1-K17
Procedure: as §5

[20] = target: T1, Human CCR8 (C-C chemokine receptor type …); test: flow cytometry epitope binning, tandem format, human CCR8-overexpressing cells; competitor 6-B09
Procedure: as §5

[21] = target: T1, Human CCR8 (C-C chemokine receptor type …); test: flow cytometry epitope binning, tandem format, human CCR8-overexpressing cells; competitor 7-B16
Procedure: as §5

[22] = target: T1, Human CCR8 (C-C chemokine receptor type …); test: flow cytometry epitope binning, tandem format, human CCR8-overexpressing cells; competitor 19-O07
Procedure: as §5

T1 sequence (P51685 whole entry): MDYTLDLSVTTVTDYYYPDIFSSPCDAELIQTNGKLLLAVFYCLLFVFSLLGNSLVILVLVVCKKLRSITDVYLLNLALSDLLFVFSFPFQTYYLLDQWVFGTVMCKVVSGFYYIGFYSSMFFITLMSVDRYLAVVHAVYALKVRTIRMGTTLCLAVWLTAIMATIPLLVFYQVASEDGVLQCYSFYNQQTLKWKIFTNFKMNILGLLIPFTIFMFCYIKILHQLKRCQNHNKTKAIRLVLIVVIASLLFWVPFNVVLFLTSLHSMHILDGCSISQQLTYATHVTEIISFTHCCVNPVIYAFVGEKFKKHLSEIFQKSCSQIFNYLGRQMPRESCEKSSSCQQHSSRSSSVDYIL
T4 sequence (P51685 whole entry): as above

B1: 7-B16 (mouse hybridoma antibody) (antibody, mouse IgG1, kappa)
heavy: EVQLVESGGGLVQPKGSLKLSCAASGFTFNTYAMNWVRQAPGKGLEWVARIRSKSNNYATYYADSVKDRFTISRDDSQSMLYLQMNNLKTEDTAMYYCVRGLLRYRFFDVWGAGTTVTVSSAKTTPPSVYPLAPGSAAQTNSMVTLGCLVKGYFPEPVTVTWNSGSLSSGVHTFPAVLESDLYTLSSSVTVPSSPRPSETVTCNVAHPASSTKVDKKIVPRDCGCKPCICTVPEVSSVFIFPPKPKDVLTITLTPKVTCVVVDISKDDPEVQFSWFVDDVEVHTAQTQPREEQFNSTFRSVSELPIMHQDWLNGKEFKCRVNSAAFPAPIEKTISKTKGRPKAPQVYTIPPPKEQMAKDKVSLTCMITDFFPEDITVEWQWNGQPAENYKNTQPIMNTNGSYFVYSKLNVQKSNWEAGNTFTCSVLHEGLHNHHTEKSLSHSPG
light: DIVMTQAEPSVPVTPGESISISCRSSKSLLHSNGNTYLYWFLQRPGQSPQLLIYRMSNLASGVPDRFSGSGSGTAFTLRISRVEAEDVGVYYCMQHLEYPFTFGGGTKLEIKRADAAPTVSIFPPSSEQLTSGGASVVCFLNNFYPKDINVKWKIDGSERQNGVLNSWTDQDSKDSTYSMSSTLTLTKDEYERHNSYTCEATHKTSTSPIVKSFNRNEC
- binding result [1]: binds
- binding result [2]: no binding

B2: 7B16-H3.001 (CDR H3 swapped mutant of 7-B16) (antibody, V domains shown)
VH: EVQLVESGGGLVQPKGSLKLSCAASGFTFNTYAMNWVRQAPGKGLEWVARIRSKSNNYATYYADSVKDRFTISRDDSQSMLYLQMNNLKTEDTAMYYCTRYYYYYGMDVWGAGTTVTVSS
VL: DIVMTQAEPSVPVTPGESISISCRSSKSLLHSNGNTYLYWFLQRPGQSPQLLIYRMSNLASGVPDRFSGSGSGTAFTLRISRVEAEDVGVYYCMQHLEYPFTFGGGTKLEIKR
notes: also called CDR swapped variant H3
- binding result [3]: no binding (tested: 300 nM CCR8-NT.MBP)
- binding result [4]: no binding
- Octet Response (nm) [5]: 0.0093 nm

B3: 7-B16 chimera (human IgG1) (antibody)
heavy: not shown
light: DIVMTQAEPSVPVTPGESISISCRSSKSLLHSNGNTYLYWFLQRPGQSPQLLIYRMSNLASGVPDRFSGSGSGTAFTLRISRVEAEDVGVYYCMQHLEYPFTFGGGTKLEIKRTVAAPSVFIFPPSDEQLKSGTASVVCLLNNFYPREAKVQWKVDNALQSGNSQESVTEQDSKDSTYSLSSTLTLSKADYEKHKVYACEVTHQGLSSPVTKSFNRGEC
notes: also called 7-B16.hG1 Chimera; Wild type 7-B16
- binding result [6]: no binding
- IC50, antagonist activity in DiscoverX PathHunter beta-arrestin assay with 13.7 nM human CCL1 [7]: 0.09 µg/mL
- EC50 of ADCC function (Promega ADCC reporter bioassay) [8]: 0.00691 µg/mL
- ADCC (Fold Induction) [9]: 23.3 fold
- Kd [10]: 0.22 nM
- kon [10]: 6.08e+06 M⁻¹ s⁻¹
- Flow (fold over parent) [11]: 10 fold
- koff [12]: 0.00134 s⁻¹
- ELISA epitope binning signal [13]: 0.101
- ELISA epitope binning signal [14]: 0.771
- ELISA epitope binning signal [15]: 1.04
- ELISA epitope binning signal [16]: 0.655
- ELISA epitope binning signal [17]: 0.437
- % of the maximum binding [18]: 14%
- % of the maximum binding [19]: 18%
- % of the maximum binding [20]: 175%
- % of the maximum binding [21]: 41%
- % of the maximum binding [22]: 148%

B4: 7B16-L1.001 (CDR L1 swapped mutant of 7-B16) (antibody, V domains shown)
VH: EVQLVESGGGLVQPKGSLKLSCAASGFTFNTYAMNWVRQAPGKGLEWVARIRSKSNNYATYYADSVKDRFTISRDDSQSMLYLQMNNLKTEDTAMYYCVRGLLRYRFFDVWGAGTTVTVSS
VL: DIVMTQAEPSVPVTPGESISISCRSSQSLLHSNGYNYLDWFLQRPGQSPQLLIYRMSNLASGVPDRFSGSGSGTAFTLRISRVEAEDVGVYYCMQHLEYPFTFGGGTKLEIKR
notes: also called CDR swapped variant L1
- binding result [3]: no binding (tested: 300 nM CCR8-NT.MBP)
- binding result [4]: no binding
- Octet Response (nm) [5]: 0.0039 nm

From patent publication US20260116987A1 (Gilead, published 2026)
